This note sets out measurements from article PMC6593147, “COP1 regulates the stability of CAM7 to promote photomorphogenic growth” (Plant Direct, 2019).

B1: COP1‐His (natural protein)
chain: MEEISTDPVVPAVKPDPRTSSVGEGANRHENDDGGSGGSEIGAPDLDKDLLCPICMQIIKDAFLTACGHSFCYMCIITHLRNKSDCPCCSQHLTNNQLYPNFLLDKLLKKTSARHVSKTASPLDQFREALQRGCDVSIKEVDNLLTLLAERKRKMEQEEAERNMQILLDFLHCLRKQKVDELNEVQTDLQYIKEDINAVERHRIDLYRARDRYSVKLRMLGDDPSTRNAWPHEKNQIGFNSNSLSIRGGNFVGNYQNKKVEGKAQGSSHGLPKKDALSGSDSQSLNQSTVSMARKKRIHAQFNDLQECYLQKRRQLADQPNSKQENDKSVVRREGYSNGLADFQSVLTTFTRYSRLRVIAEIRHGDIFHSANIVSSIEFDRDDELFATAGVSRCIKVFDFSSVVNEPADMQCPIVEMSTRSKLSCLSWNKHEKNHIASSDYEGIVTVWDVTTRQSLMEYEEHEKRAWSVDFSRTEPSMLVSGSDDCKVKVWCTRQEASVINIDMKANICCVKYNPGSSNYIAVGSADHHIHYYDLRNISQPLHVFSGHKKAVSYVKFLSNNELASASTDSTLRLWDVKDNLPVRTFRGHTNEKNFVGLTVNSEYLACGSETNEVYVYHKEITRPVTSHRFGSPDMDDAEEEAGSYFISAVCWKSDSPTMLTANSQGTIKVLVLAA
notes: COP1 (CONSTITUTIVELY PHOTOMORPHOGENIC 1) E3 ubiquitin ligase, Arabidopsis thaliana, full-length CDS cloned into pET-20b(+); also called COP1‐6His; source: E. coli BL21 (DE3), purified by Ni‐NTA Agarose beads; not shown: His6, C-terminal, kept
B2: GST‐HY5 (natural protein, Arabidopsis thaliana, UniProt O24646 1-168, looked up)
chain: MQEQATSSLAASSLPSSSERSSSSAPHLEIKEGIESDEEIRRVPEFGGEAVGKETSGRESGSATGQERTQATVGESQRKRGRTPAEKENKRLKRLLRNRVSAQQARERKKAYLSELENRVKDLENKNSELEERLSTLQNENQMLRHILKNTTGNKRGGGGGSNADASL
notes: Positive control of the pull-down; also called ELONGATED HYPOCOTYL5; source: E. coli BL21 (DE3), purified by Glutathione sepharose 4B beads

The target in one experiment is T1, GST‐CAM7 (Arabidopsis thaliana, UniProt P59220 1-149).
T1 construct: Vector pGEX-4T2; also called Calmodulin7; CAM7/ZBF3; source: E. coli BL21 (DE3), purified by Glutathione sepharose 4B beads
In words: pull-down; 2 μg COP1‐His bound to Ni‐NTA beads; GST fusions or GST added in an equimolar ratio, overnight at 4°C; 50 mM Tris‐Cl pH 7.5, 100 mM NaCl, 0.2% glycerol, 0.1% triton, 1 mM EDTA, 0.1% NP‐40; anti‐GST immunoblot. As to conditions: both partners purified. Background: Immunoblotting shows a protein as a band on a membrane.

The experiment “COP1‐His” addresses B1. The description is as above. As to conditions: both partners purified.

Turning to B1, the binding result in the experiment with GST‐CAM7 is given as “binds”. As to B2, in the experiment with COP1‐His, the binding result is “binds”.
